In US20160052994A1:

Key:
[1] = target: Type I collagen (Nitta Gelatin Inc., type I-A: porcine origin) (porcine); assay: solid-phase binding assay on coated type I collagen, detection with anti-FLAG antibody M2
[2] = target: Gelatin (Sigma, G1890-100G: porcine origin) (porcine); assay: solid-phase binding assay on coated gelatin, detection with anti-laminin α5 antibody 5D6
[3] = target: Type I collagen (Nitta Gelatin Inc., type I-A: porcine origin) (porcine); assay: solid-phase binding assay on coated type I collagen, detection with anti-laminin α5 antibody 5D6

CBD-fused laminin 111E8 fragment 111βγ (from UniProt P25391 1878-2700)
fold binding activity against the form with a single CBD (111β) [1]: > 10 fold

CBD-fused laminin 121E8 fragment 121βγ (from UniProt P25391 1878-2700)
fold binding activity against the form with a single CBD (121β) [1]: > 10 fold

CBD-fused laminin 211E8 fragment 211βγ (from UniProt P24043 1900-2722)
fold binding activity against the form with a single CBD (211β) [1]: > 10 fold

CBD-fused laminin 221E8 fragment 221βγ (from UniProt P24043 1900-2722)
fold binding activity against the form with a single CBD (221β) [1]: > 10 fold

CBD-fused laminin 311E8 fragment 311βγ (from UniProt Q16787 579-1364)
fold binding activity against the form with a single CBD (311β) [1]: > 10 fold

CBD-fused laminin 321E8 fragment 321βγ (from UniProt Q16787 579-1364)
fold binding activity against the form with a single CBD (321β) [1]: > 10 fold

CBD-fused laminin 411E8 fragment 411βγ (from UniProt Q16363 629-1449)
fold binding activity against the form with a single CBD (411β) [1]: > 10 fold

CBD-fused laminin 421E8 fragment 421βγ (from UniProt Q16363 629-1449)
fold binding activity against the form with a single CBD (421β) [1]: > 10 fold

CBD-fused laminin 511E8 fragment CBD-E8(αβγ)
fold binding activity against the monovalent forms [2]: 3 fold | concentration at which the binding activity reached saturation [3]: 10 nM | fold binding activity against the forms with a single CBD (monovalent forms) [3]: 10 fold

CBD-fused laminin 511E8 fragment CBD-E8(βγ) (from UniProt O15230 2534-3327)
fold binding activity against the monovalent forms [2]: 3 fold | concentration at which the binding activity reached saturation [3]: 10 nM | fold binding activity against the forms with a single CBD (monovalent forms) [3]: 10 fold

CBD-fused laminin 521E8 fragment 521βγ (from UniProt O15230 2534-3327)
fold binding activity against the form with a single CBD (521β) [1]: > 10 fold
